What was measured:
Experiment in all cases: AlphaScreen or HTRF
[1] = molecular target: PPARγ ligand binding domain (LBD)
[2] = molecular target: PPARα ligand binding domain (LBD)
[3] = molecular target: PPARδ ligand binding domain (LBD)

Measured: AlphaScreen signal

N-terminal biotinylated CBP1 peptide
< 800: [1] | [2] | [3]
